# Source: article PMC10219671
# pIC50: −log10 of the molar value.
# Biological target: SARS-CoV-2 HR2 protein (heptad repeat 2 of the S2 subunit of the spike protein) (SARS-CoV-2)
# Assay: ELISA
substance,measurement,value
SARS-CoV-2 HR1 protein (heptad repeat 1 of the S2 subunit of the spike protein) (domain or fragment),pIC50,7.32
